Source: US7049080B2, “Process for detecting serine/threonine kinase activity” (priority 2000, dated 2006)
Non-standard residues stand in square brackets, D forms with d. pY = N[C@@H](Cc1ccc(OP(=O)(O)O)cc1)C(=O)O; pT = C[C@@H](OP(=O)(O)O)[C@H](N)C(=O)O

Columns and labels:
[1] = system: T1, P1° peptide, H-Lys-Phe-Met-Met-Thr-Pro-pTyr-Val-Val-Thr-Arg-NH2
T1 sequence: KFMMTPYVVTR

NEB antibody #9251 = test: FP controls conjugate/high/low (Example 7); type: binding, rabbit; details: Low: P1*°-Tamra + NEB ab (1:20) + competitor 200 nM, 0 h
Experimental: The following reagents have been used (the compositions of the buffers and specifications of the reagents are explained in more detail later on): Hepes buffer, MgCl2 10 mM, ATP 20 μM, P1^∘ peptide at 100 μM, NEB antibody # 9251 1:20 dilution, P1*^∘-TAMRA 5 nM, Pluronic 0.1%, MKK7 at 0, 0.005, 0.02, 0.08, 0.2, 0.5 and 2 μM.
After addition of MKK7, the enzyme reactions were performed in Nunc chambers at RT. The samples were continuously measured at different time points by Fluorescence polarization.
Bis-phosphorylated peptide P1*^∘ can be used as competitor, resulting in free labelled ligand called “low” or “negative control”. This can be seen in the following table 1.

MKK7 kinase (Upstate Biotech cat. no. 14-366)
FP, 100 µM P1°, MKK7 0.005 µM, 0 h [1]: 132 mP | FP, 100 µM P1°, MKK7 0.005 µM, 0.5 h [1]: 137 mP | FP, 100 µM P1°, MKK7 0.005 µM, 1 h [1]: 137 mP | FP, 100 µM P1°, MKK7 0.005 µM, 1.5 h [1]: 137 mP | FP, 100 µM P1°, MKK7 0.005 µM, 3 h [1]: 138 mP | FP, 100 µM P1°, MKK7 0.02 µM, 0 h [1]: 135 mP | FP, 100 µM P1°, MKK7 0.02 µM, 0.5 h [1]: 140 mP | FP, 100 µM P1°, MKK7 0.02 µM, 1 h [1]: 141 mP | FP, 100 µM P1°, MKK7 0.02 µM, 1.5 h [1]: 140 mP | FP, 100 µM P1°, MKK7 0.02 µM, 3 h [1]: 140 mP | FP, 100 µM P1°, MKK7 0.08 µM, 0 h [1]: 134 mP | FP, 100 µM P1°, MKK7 0.08 µM, 0.5 h [1]: 138 mP | FP, 100 µM P1°, MKK7 0.08 µM, 1 h [1]: 136 mP | FP, 100 µM P1°, MKK7 0.08 µM, 1.5 h [1]: 128 mP | FP, 100 µM P1°, MKK7 0.08 µM, 3 h [1]: 115 mP | FP, 100 µM P1°, MKK7 0.2 µM, 0 h [1]: 135 mP | FP, 100 µM P1°, MKK7 0.2 µM, 0.5 h [1]: 132 mP | FP, 100 µM P1°, MKK7 0.2 µM, 1 h [1]: 122 mP | FP, 100 µM P1°, MKK7 0.2 µM, 1.5 h [1]: 114 mP | FP, 100 µM P1°, MKK7 0.2 µM, 3 h [1]: 105 mP | FP, 100 µM P1°, MKK7 0.5 µM, 0 h [1]: 135 mP | FP, 100 µM P1°, MKK7 0.5 µM, 0.5 h [1]: 126 mP | FP, 100 µM P1°, MKK7 0.5 µM, 1 h [1]: 115 mP | FP, 100 µM P1°, MKK7 0.5 µM, 1.5 h [1]: 109 mP | FP, 100 µM P1°, MKK7 0.5 µM, 3 h [1]: 107 mP | FP, 100 µM P1°, MKK7 1.0 µM, 0 h [1]: 136 mP | FP, 100 µM P1°, MKK7 1.0 µM, 0.5 h [1]: 120 mP | FP, 100 µM P1°, MKK7 1.0 µM, 1 h [1]: 112 mP | FP, 100 µM P1°, MKK7 1.0 µM, 1.5 h [1]: 105 mP | FP, 100 µM P1°, MKK7 1.0 µM, 3 h [1]: 108 mP | FP, NEB ab in STOP sol., MKK7 0.04 µM, 0 h [1]: 147 mP | FP, NEB ab in STOP sol., MKK7 0.04 µM, 0.5 h [1]: 142 mP | FP, NEB ab in STOP sol., MKK7 0.04 µM, 1 h [1]: 140 mP | FP, NEB ab in STOP sol., MKK7 0.04 µM, 1.5 h [1]: 136 mP | FP, NEB ab in STOP sol., MKK7 0.04 µM, 2 h [1]: 134 mP | FP, NEB ab in STOP sol., MKK7 0.04 µM, 3 h [1]: 138 mP | FP, NEB ab in STOP sol., MKK7 0.08 µM, 0 h [1]: 143 mP | FP, NEB ab in STOP sol., MKK7 0.08 µM, 0.5 h [1]: 139 mP | FP, NEB ab in STOP sol., MKK7 0.08 µM, 1 h [1]: 134 mP | FP, NEB ab in STOP sol., MKK7 0.08 µM, 1.5 h [1]: 122 mP | FP, NEB ab in STOP sol., MKK7 0.08 µM, 2 h [1]: 116 mP | FP, NEB ab in STOP sol., MKK7 0.08 µM, 3 h [1]: 125 mP | FP, NEB ab in STOP sol., MKK7 0.2 µM, 0 h [1]: 148 mP | FP, NEB ab in STOP sol., MKK7 0.2 µM, 0.5 h [1]: 130 mP | FP, NEB ab in STOP sol., MKK7 0.2 µM, 1 h [1]: 114 mP | FP, NEB ab in STOP sol., MKK7 0.2 µM, 1.5 h [1]: 103 mP | FP, NEB ab in STOP sol., MKK7 0.2 µM, 2 h [1]: 99.2 mP | FP, NEB ab in STOP sol., MKK7 0.2 µM, 3 h [1]: 119 mP | FP, NEB ab in reaction, MKK7 0.04 µM, 0 h [1]: 150 mP | FP, NEB ab in reaction, MKK7 0.04 µM, 0.5 h [1]: 128 mP | FP, NEB ab in reaction, MKK7 0.04 µM, 1 h [1]: 126 mP | FP, NEB ab in reaction, MKK7 0.04 µM, 1.5 h [1]: 113 mP | FP, NEB ab in reaction, MKK7 0.04 µM, 2 h [1]: 110 mP | FP, NEB ab in reaction, MKK7 0.04 µM, 3 h [1]: 78.6 mP | FP, NEB ab in reaction, MKK7 0.08 µM, 0 h [1]: 138 mP | FP, NEB ab in reaction, MKK7 0.08 µM, 0.5 h [1]: 122 mP | FP, NEB ab in reaction, MKK7 0.08 µM, 1 h [1]: 106 mP | FP, NEB ab in reaction, MKK7 0.08 µM, 1.5 h [1]: 86.4 mP | FP, NEB ab in reaction, MKK7 0.08 µM, 2 h [1]: 84.5 mP | FP, NEB ab in reaction, MKK7 0.08 µM, 3 h [1]: 65 mP | FP, NEB ab in reaction, MKK7 0.2 µM, 0 h [1]: 137 mP | FP, NEB ab in reaction, MKK7 0.2 µM, 0.5 h [1]: 101 mP | FP, NEB ab in reaction, MKK7 0.2 µM, 1 h [1]: 83.1 mP | FP, NEB ab in reaction, MKK7 0.2 µM, 1.5 h [1]: 78.1 mP | FP, NEB ab in reaction, MKK7 0.2 µM, 2 h [1]: 72.1 mP | FP, NEB ab in reaction, MKK7 0.2 µM, 3 h [1]: 59.4 mP | Km for P1° peptide (read-out: fluorescence polarization) [1]: Km=94 nM±59 nM | phosphorylation of P1° peptide substrate by MKK7 kinase [1]: Efficient phosphorylation of P1° peptide is measured

H-Lys-Phe-Met-Met-pThr-Pro-pTyr-Val-Val-Thr-Arg-NH2 (H-KFMM[pT]P[pY]VVTR-NH2; SMILES CSCC[C@H](NC(=O)[C@H](Cc1ccccc1)NC(=O)[C@@H](N)CCCCN)C(=O)N[C@@H](CCSC)C(=O)N[C@H](C(=O)N1CCC[C@H]1C(=O)N[C@@H](Cc1ccc(OP(=O)(O)O)cc1)C(=O)N[C@H](C(=O)N[C@H](C(=O)N[C@H](C(=O)N[C@@H](CCCNC(=N)N)C(N)=O)[C@@H](C)O)C(C)C)C(C)C)[C@@H](C)OP(=O)(O)O) [P1*^∘]
Fluorescence Polarization (NEB antibody #9251): 84.5 mP
